We go through 83 variants from the RNAGym collection of RNA variant scans (doi:10.1073/pnas.2313332121).

B1: TPR t1 (parent)
chain: GACCAAUCUGCCCUCAGAGCUCGAGAACAUCUUCGGAUGCAGAGGAGGCAGGCUUCGGUGGCGCGAUAGCGCCAACGUCCUCAACCUCCAAUGCAUCCCACCACAUGAUGAUGCCUGAAGAGCCUUGGUUUUUUG

The data set covers variants of B1. Kind of data set: polymerase ribozyme fitness, log enrichment relative to wild type (log ratio); higher = more active; in vitro selection for triplet polymerase activity. Summed up: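 Frozen incubation at −7 °C formed the core of a single, triplicate in vitro selection round applied to PCR-built, transcribed mutant libraries of each subunit of a heterodimeric triplet polymerase ribozyme. Extended constructs were gel-excised, captured with streptavidin beads and amplified by RT-PCR, and input and output libraries were Illumina-sequenced with a filter of ≥10 input reads and ≥1 read per output. Fitness is the logarithm of genotype enrichment relative to wild-type enrichment, with inverse-variance-weighted replicate averaging, and the logarithm is base 2.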
For the variant C20A C22A G69U U81G U96G A121U, the “polymerase ribozyme fitness (log ratio)” value was -5.24. Next, U21G C56U A111G U112G: -0.871; C22A C31G G61A C102A C123G: -7.56; C22U G120U: -3.75. The result for C22G G47C U59C U92G C97A A111G reads -6.83; that for C22A A29G, -4.8; that for C22U A26U C53U G69C A119G, -6.14. Next, U21G C73U: -1.84. Consider C22U G69U, for which the “polymerase ribozyme fitness (log ratio)” value was -2.26.

For the variant C20U C114G, the “polymerase ribozyme fitness (log ratio)” value is -1.55. The result for C22U C70U reads -4.14; that for C20A C40U U59A G117U G128C, -4.96; that for C22G U32G C49A G61U U87C, -4.78. Next, C20G C123A: -4.02; C20A C40A C72U C73U: -4.3; C20U C85A: -3.94. Next, C20A G48U: -3.37.

As for C20A C88G, the “polymerase ribozyme fitness (log ratio)” value was -3.11. The result for C20A C49U C72U U78C reads -3.44. The result for C20U C73G C114G reads -1.71; that for U21C A29U A84C U112A A119G G120C, -0.885; that for C22G G47U A111C, -5.82. Next, C20G C114G C115U: -6. Regarding U21G G36A, the “polymerase ribozyme fitness (log ratio)” value was -2.46. Next, C20U G110U: -3.13. Regarding C22A G120U U131A, the “polymerase ribozyme fitness (log ratio)” value is -4.18. Next, C20U G113A: 1.4; C20U G113C: -2.2; U21C C28U C72U: -1.89. Consider U21G G61C U87A U133G G135U, for which the “polymerase ribozyme fitness (log ratio)” value was -3.09. The result for C22U G60A reads -3.85. The result for U21C A37G C62A G117A reads -3.01.

C20U G36A G48C G113A: the “polymerase ribozyme fitness (log ratio)” value amounted to 0.28. Next, U21A A29C: -3.14; C22A G61U: -5.05. Next, C22U C70U C88G: -6.53; C22A C73A G120A: -4.58; C20U G69C C94U: -2.8. As for C20G C62U U125A, the “polymerase ribozyme fitness (log ratio)” value is -5.73. As to C20A G45C, the “polymerase ribozyme fitness (log ratio)” value is -3.43. The result for U21G C62A C124A U131A reads -1.77; that for C20G C99G G110C, -7.02; that for C22G A84G, -4.29.

With C20A G122A, the “polymerase ribozyme fitness (log ratio)” value was -3.47.

As to C20A C49U G61U C85A, the “polymerase ribozyme fitness (log ratio)” value was -3.53.

For the variant C20U G93U, the “polymerase ribozyme fitness (log ratio)” value was -3.35. With C22U A121U, the “polymerase ribozyme fitness (log ratio)” value is -2.45. The result for C22A C49U reads -6.04; that for G23A A26G C104A, -5.12. Next, C20U C64U C114U A118G U131A: -0.511; C22G A90U U106A A111U: -3.25; C20U A83C U112G: -2.09.

For the variant C20G U133G, the “polymerase ribozyme fitness (log ratio)” value was -3.81. For C20A C98G, the “polymerase ribozyme fitness (log ratio)” value was -5.84. Next, C20G U55C G57A A90G: -5.05. Turning to C20A G120C, the “polymerase ribozyme fitness (log ratio)” value is -1.75.

For the variant C20A G120U, the “polymerase ribozyme fitness (log ratio)” value is -2.44. The result for C22G A26G C56G A75G reads -5.33; that for C20G C89U U109G U132C, -3.87. Take U21C A27U G36C A111U: the “polymerase ribozyme fitness (log ratio)” value was -4.98. The result for C20A G36C U126C reads -4.66.

C22G G52C C79U: the “polymerase ribozyme fitness (log ratio)” value was -4.14. The result for C20U C40U G60U C82A U96A C124A reads -1.54; that for U21A C53U C85U, -2.21. Next, U21C G42A U109A G117C: -7.38; U21A C62U U92C U116C A119G: 0.3; C22G U78A U87A C88A C102A: -5.54. The result for C20U A26C G42U U54G C64U G122A C124A reads -6.48; that for C20U A95C, -2.07; that for C22G G48A, -3.33.

For the variant C20U U78C C124G, the “polymerase ribozyme fitness (log ratio)” value worked out at 0.066. Next, C20U C72U U78A A111G C123G G135C: -3.01; C20U G42U C73U: -2.41; U21G C53U C64U C79A: -3.11. Next, C20A G45U C53G C88U A111U U125G: -4.56; U21C G113C: -1.14; G23A C31U G122U C124G: -7.15. Regarding C20A G45U C53G G63C C88U A111U U125G, the “polymerase ribozyme fitness (log ratio)” value was -5.87. The result for C22G C80A C101U C124A reads -3.81; that for U21A G71A C88U G93A, -2.14; that for C20A U112G, -1.72. Next, C20A U112C: -1.35; C22G C56G C86U C124U: -3.03.
